Results published in article PMC1904298.

What follows are substances tested on ϕC31 integrase (Streptomyces phage ϕC31?) (assay: EMSA).

| Substance | K half [nM] |
| --- | --- |
| attB C+15G, 72 bp fragment | 72.7 |
| attB C-2A:G+2T, 72 bp fragment | 56.7 |
| attB C-2G, 72 bp fragment | 55.7 |
| attB G+2C, 72 bp fragment | 58.3 |
| attB G+16A, 72 bp fragment | 53.3 |
| attB G-16T, 72 bp fragment | 66 |
| attB G-16T:G+16A, 72 bp fragment | 61.3 |
| attB T-15C, 72 bp fragment | 68.3 |
| attB wt, 72 bp fragment | 61.3 |
